# Laboratory results taken from paper PMC4027165, “SAXS analysis of the tRNA-modifying enzyme complex MnmE/MnmG reveals a novel interaction mode and GTP-induced oligomerization” (Nucleic Acids Research, 2014).
# T1: MnmE (Y169A, D175A and F176A) with additional S153A (Escherichia coli, UniProt P25522 1-454, S153A | Y169A | D175A | F176A)
# T1 sequence: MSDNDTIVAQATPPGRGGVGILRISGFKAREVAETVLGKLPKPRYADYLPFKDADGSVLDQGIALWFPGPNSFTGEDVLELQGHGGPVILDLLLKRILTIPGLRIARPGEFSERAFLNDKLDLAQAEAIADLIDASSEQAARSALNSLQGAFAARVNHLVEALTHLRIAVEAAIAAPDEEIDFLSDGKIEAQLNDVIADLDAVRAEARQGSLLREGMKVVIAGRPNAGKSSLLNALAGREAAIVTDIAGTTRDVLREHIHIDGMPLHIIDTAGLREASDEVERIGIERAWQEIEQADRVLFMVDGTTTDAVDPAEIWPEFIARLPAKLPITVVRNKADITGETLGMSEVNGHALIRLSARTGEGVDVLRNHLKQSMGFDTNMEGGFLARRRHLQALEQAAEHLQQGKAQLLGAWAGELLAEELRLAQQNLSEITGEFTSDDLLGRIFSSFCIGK
# T2: MnmE (Y169A, D175A and F176A) (Escherichia coli, UniProt P25522 1-454, Y169A | D175A | F176A)
# T2 sequence: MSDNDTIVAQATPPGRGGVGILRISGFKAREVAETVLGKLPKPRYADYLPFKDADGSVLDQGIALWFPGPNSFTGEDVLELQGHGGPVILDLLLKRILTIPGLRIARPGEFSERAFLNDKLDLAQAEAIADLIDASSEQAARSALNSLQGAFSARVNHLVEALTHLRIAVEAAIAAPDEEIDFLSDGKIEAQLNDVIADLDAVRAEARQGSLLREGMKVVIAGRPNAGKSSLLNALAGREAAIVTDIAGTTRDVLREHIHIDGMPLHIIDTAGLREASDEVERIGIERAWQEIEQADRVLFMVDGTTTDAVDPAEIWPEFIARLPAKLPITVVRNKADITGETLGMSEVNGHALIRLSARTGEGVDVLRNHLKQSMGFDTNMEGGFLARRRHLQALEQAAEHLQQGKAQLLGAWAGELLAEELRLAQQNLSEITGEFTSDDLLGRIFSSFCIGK
# T3: MnmE (T434A and D440A) (Escherichia coli, UniProt P25522 1-454, T434A | D440A)
# T3 sequence: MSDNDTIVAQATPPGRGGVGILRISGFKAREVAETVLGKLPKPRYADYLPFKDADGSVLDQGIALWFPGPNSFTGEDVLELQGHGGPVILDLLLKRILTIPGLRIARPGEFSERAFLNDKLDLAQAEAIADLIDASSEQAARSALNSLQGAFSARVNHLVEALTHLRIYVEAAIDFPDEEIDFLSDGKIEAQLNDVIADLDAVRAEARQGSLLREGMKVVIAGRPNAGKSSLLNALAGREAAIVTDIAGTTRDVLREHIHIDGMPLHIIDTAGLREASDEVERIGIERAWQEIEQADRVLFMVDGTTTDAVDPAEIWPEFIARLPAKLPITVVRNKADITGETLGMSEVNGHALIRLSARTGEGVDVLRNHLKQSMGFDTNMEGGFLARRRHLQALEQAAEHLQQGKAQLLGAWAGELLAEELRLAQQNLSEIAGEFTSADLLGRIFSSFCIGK
# T4: MnmE from Escherichia coli, wild type (Escherichia coli, UniProt P25522 1-454)
# T4 construct: tRNA modification GTPase MnmE (formerly TrmE), Escherichia coli; open reading frame cloned in a pET20 vector; Homodimer of about 50-kDa subunits; Used nucleotide-free, with GDP-AlFx or with GppNHp depending on the experiment; also called TrmE; MnmE wt
# T4 sequence (looked up): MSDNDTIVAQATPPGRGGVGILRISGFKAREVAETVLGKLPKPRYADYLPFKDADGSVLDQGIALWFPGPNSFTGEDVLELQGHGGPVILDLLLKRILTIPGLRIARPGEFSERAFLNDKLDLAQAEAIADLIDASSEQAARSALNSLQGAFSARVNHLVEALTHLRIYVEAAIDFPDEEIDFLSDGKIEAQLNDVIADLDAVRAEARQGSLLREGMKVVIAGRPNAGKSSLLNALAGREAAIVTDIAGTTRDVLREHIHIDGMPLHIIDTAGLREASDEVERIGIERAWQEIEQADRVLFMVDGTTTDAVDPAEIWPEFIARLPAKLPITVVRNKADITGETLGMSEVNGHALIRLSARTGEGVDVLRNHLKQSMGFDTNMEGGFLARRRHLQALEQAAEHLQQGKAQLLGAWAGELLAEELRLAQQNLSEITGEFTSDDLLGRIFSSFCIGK
# Tests used:
# [1] = biological target: T1, MnmE (Y169A, D175A and F176A) with …; assay: ITC; MnmE mutant in syringe, MnmG in cell
# [2] = biological target: T2, MnmE (Y169A, D175A and F176A); assay: ITC; MnmE mutant in syringe, MnmG in cell
# [3] = biological target: T3, MnmE (T434A and D440A); assay: ITC; MnmE mutant in syringe, MnmG in cell
# [4] = biological target: T1, MnmE (Y169A, D175A and F176A) with …; assay: ITC; MnmG in syringe, MnmE mutant in cell
# [5] = biological target: T2, MnmE (Y169A, D175A and F176A); assay: ITC; MnmG in syringe, MnmE mutant in cell
# [6] = biological target: T3, MnmE (T434A and D440A); assay: ITC; MnmG in syringe, MnmE mutant in cell
# [7] = biological target: the molecule itself; assay: SEC-MALS; E. coli MnmG alone, at all concentrations used (Supplementary Figure S2(D))
# [8] = biological target: T4, MnmE from Escherichia coli, wild type; assay: ITC; 278 K; 20 mM Hepes pH 7.5, 150 mM NaCl, 5 mM MgCl2, 2 mM BME, 1 mM FAD; 15 uM in the cell, 300 uM in the syringe; titrated in both directions; one site model; apparent; conditions: both partners purified
binder,measurement,setting,value
"MnmG from Escherichia coli, wild type (enzyme, UniProt P0A6U3 1-629, looked up, tRNA uridine 5-carboxymethylaminomethyl modification enzyme MnmG (formerly GidA), Escherichia coli; open reading frame cloned in a pET14b vector; Homodimer of 70-kDa subunits; also called GidA; MnmG wt) MFYPDPFDVIIIGGGHAGTEAAMAAARMGQQTLLLTHNIDTLGQMSCNPAIGGIGKGHLVKEVDALGGLMAKAIDQAGIQFRILNASKGPAVRATRAQADRVLYRQAVRTALENQPNLMIFQQAVEDLIVENDRVVGAVTQMGLKFRAKAVVLTVGTFLDGKIHIGLDNYSGGRAGDPPSIPLSRRLRELPLRVGRLKTGTPPRIDARTIDFSVLAQQHGDNPMPVFSFMGNASQHPQQVPCYITHTNEKTHDVIRSNLDRSPMYAGVIEGVGPRYCPSIEDKVMRFADRNQHQIFLEPEGLTSNEIYPNGISTSLPFDVQMQIVRSMQGMENAKIVRPGYAIEYDFFDPRDLKPTLESKFIQGLFFAGQINGTTGYEEAAAQGLLAGLNAARLSADKEGWAPARSQAYLGVLVDDLCTLGTKEPYRMFTSRAEYRLMLREDNADLRLTEIGRELGLVDDERWARFNEKLENIERERQRLKSTWVTPSAEAAAEVNAHLTAPLSREASGEDLLRRPEMTYEKLTTLTPFAPALTDEQAAEQVEIQVKYEGYIARQQDEIEKQLRNENTLLPATLDYRQVSGLSNEVIAKLNDHKPASIGQASRISGVTPAAISILLVWLKKQGMLRRSA",Kd,[1],12.9 µM
same,Kd,[2],12 µM
same,Kd,[3],11.2 µM
same,Kd,[4],29.9 µM
same,Kd,[5],11.4 µM
same,Kd,[6],9.4 µM
same,stoichiometry N,[7],2
same,stoichiometry N,[8],1
